Source: US20240175869A1
Values belong to the substance of their own block, whether it stands above or below them.

Key:
[1] = target: ALK6; experiment: solid-phase binding assay, half max read from the curve (FIG. 9)
[2] = target: ALK6; experiment: solid-phase binding assay, saturation measured at 100 nM ALK6, pH 6.0
[3] = target: ALK6; experiment: solid-phase binding assay, isolated domain immobilized, ALK6 titrated (FIG. 9)
[4] = target: ALK6; experiment: solid-phase binding assay, MuSK construct immobilized, ALK6 titrated, pH 6.0; given as Half Max
[5] = target: ALK6; experiment: solid-phase binding assay, pH 6.0 (FIG. 12)
[6] = target: ALK6; experiment: solid-phase binding assay, pH 7.4 (FIG. 12)
[7] = target: ALK6; experiment: solid-phase binding assay, half max read from the curve (FIG. 8)
[8] = target: ALK6; experiment: solid-phase binding assay, saturation measured at 100 nM ALK6, pH 7.4
[9] = target: ALK6; experiment: solid-phase binding assay, MuSK construct immobilized, ALK6 at 100 nM (FIG. 8)
[10] = target: ALK6; experiment: solid-phase binding assay, MuSK construct immobilized, ALK6 titrated, pH 7.4; given as Half Max
[11] = target: ALK6; experiment: solid-phase binding assay, MuSK immobilized, ALK6 at 100 nM (FIG. 7)
[12] = target: ALK6; experiment: solid-phase binding assay, pH 6.0 (FIG. 13)
[13] = target: ALK6; experiment: solid-phase binding assay, pH 7.4 (FIG. 13)
[14] = target: ALK6; experiment: solid-phase binding assay, several assays, ALK6 at 100 nM
[15] = target: ALK6; experiment: solid-phase binding assay, half max read from the curve (FIG. 10)

MuSK Ig1-Ig2 only construct, His-tagged (receptor), sequence (Q62838 22-205): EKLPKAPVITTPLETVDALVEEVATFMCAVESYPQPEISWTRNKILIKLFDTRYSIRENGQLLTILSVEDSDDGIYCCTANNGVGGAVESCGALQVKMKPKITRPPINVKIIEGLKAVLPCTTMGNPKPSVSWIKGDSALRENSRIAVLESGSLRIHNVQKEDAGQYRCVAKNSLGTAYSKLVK
isolated MuSK Ig2 domain, His-tagged (receptor), sequence (Q62838 121-205): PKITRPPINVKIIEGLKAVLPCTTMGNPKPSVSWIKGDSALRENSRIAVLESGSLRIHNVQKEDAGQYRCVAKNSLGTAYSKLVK
ALK6, sequence (O00238 14-126): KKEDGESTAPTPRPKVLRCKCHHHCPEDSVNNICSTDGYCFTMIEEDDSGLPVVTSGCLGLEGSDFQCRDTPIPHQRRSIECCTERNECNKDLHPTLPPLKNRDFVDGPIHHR

EC50 [1]: 6.25 nM | Saturation (%) [2]: 83% | absorbance (absorbance (450 nm)) [3]: 1.8 | EC50 [4]: 23.6 nM
Substance: isolated MuSK Ig2 domain, His-tagged (receptor)

EC50 [5]: 6.25 nM | absorbance (absorbance (450 nm)) [5]: 3 | EC50 [6]: 25 nM | absorbance (absorbance (450 nm)) [6]: 0.75 | EC50 [7]: 6.25 nM | Saturation (%) [2]: 99% | Saturation (%) [8]: 21% | absorbance at 100 nM ALK6 (absorbance (450 nm)) [9]: 3 | EC50 [4]: 15.9 nM | EC50 [10]: 18.2 nM
Substance: MuSK Ig1-Ig2 only construct, His-tagged (receptor)

absorbance at 100 nM ALK6 (absorbance (450 nm)) [11]: 0.15
Substance: MuSK ectodomain with Ig2 deletion (ΔIg2), His-tagged (receptor)

EC50 [12]: 6.5 nM | maximum absorbance (absorbance (450 nm)) [12]: 4 | EC50 [13]: 6.5 nM | maximum absorbance (absorbance (450 nm)) [13]: 4 | absorbance at 100 nM ALK6 (absorbance (450 nm)) [14]: > 3 | EC50 [15]: 12.5 nM | Saturation (%) [2]: 100% | Saturation (%) [8]: 99% | EC50 [4]: 13.7 nM | EC50 [10]: 9.1 nM
Substance: MuSK ectodomain with an Ig1 deletion (ΔIg1), His-tagged (receptor)
